{"source": "patent US20250051443A1", "about": "(NATIONAL RESEARCH COUNCIL OF CANADA, published 2025)", "binders": {"B1": {"name": "F332-1C9 (antibody, mouse IgG2a, V domains shown)", "VH": "QVQLQQPGAELGKPGTSVNLSCKASGYTFTSYWMHWVKQRPGQGLDWIGNINPNSGTTNYNEKFKSKATLTVDKSSSTAYMQLSTLTSEDSAVYYCTRDISGQYYFDYWGQGTSLTVSS", "VL": "DIVMSQSPSSLAVSAGEKVTMSCKSSQSLLNSRTRKNYLAWYQQKPGQSPKLLIYWASTRESGVPDRFTGSGSGTDFTLIISSVQAEDLAVYYCKQSYSLRTFGGGTKLEIK", "notes": "Sister clones 1A10, 5H8, 8B11 share the same entries; also called F332-1C9-2; F332-1C9 (1A10, 5H8, 8B11)"}, "B2": {"name": "F282-2D5 (antibody, V domains shown)", "VH": "QVQLQQPGTELVKPGASVKLSCKASGYTFTSYWMHWVKQRPGQGLEWIGNINPSNGGTNYNENFKTKATLTVDKSSSTAYMQLSSLTSEDSAVYYCARDRSGQYYFDYWGQGTTLTVSS", "VL": "B1 VL with I80T, K95I, S99H, K108I", "notes": "also called F282-2D5-2"}, "B3": {"name": "F332-1E2 (antibody, mouse IgG2a, V domains shown)", "VH": "B1 VH with N19K, M34I, D46E, I48V, T57S, T58I, S66N, S91F, I100T, S114T", "VL": "B1 VL with K18R, I80T, K95I, S99H", "notes": "Sister clone 8C5 shares the same entries; also called F332-1E2-2; F332-1E2 (8C5)"}, "B4": {"name": "F332-3E9 (antibody, mouse IgG2a, V domains shown)", "VH": "QVQLQQPGAELGKPGTSVKLSCKASGYTFTSYWIHWLKQRPGQGLEWIGNINPNGGSINCNEKFTTKATLTIDKSSSTAYMQLSTLTSEDFAVYYCTRDTSGQYYFDYWGQGTTLTVSS", "VL": "B1 VL with V3M, I80T, K95T, S99H", "notes": "also called F332-3E9-2; F332-3E9 (12G4)"}, "B5": {"name": "F332-4D6 (antibody, mouse IgG2a, V domains shown)", "VH": "B4 VH with P7S, L37V, G55S, I58T, C60Y, T65K, T66R, I72A", "VL": "B1 VL with L52V, I80T, S99H", "notes": "also called F332-4D6-2; F322-4D6"}, "B6": {"name": "F332-6D7 (antibody, mouse IgG2a, V domains shown)", "VH": "B1 VH", "VL": "B1 VL with I80T, T107S", "notes": "also called F332-6D7-2; F332-6D7 (7G4)"}, "B7": {"name": "F332-5F2 (antibody, mouse IgG2b, V domains shown)", "VH": "B1 VH with N19K, D46E, S55G, T57D, T58S, Y108F, S118F", "VL": "B1 VL with V3L, K18Q, Y55F, E61K, D76Y, I80T, K95T, S99N", "notes": "also called F332-5F2-2; F332-5F2 (6G8, 13A3)"}, "B8": {"name": "F332-7C5 (antibody, mouse IgG2a, V domains shown)", "VH": "QVQLQQPGAELGKPGTSVKLSCKASGYTFTSYWMHWVKQRPGQGLEWIGNINPSSGITNYNERFKNKATLTVDKSSTTAYMQLSILTSEDSAVYYCSRDISGQYYFNFWGQGTTLTVSS", "VL": "B1 VL with S71T, I80T, S99N", "notes": "also called F332-7C5-2; F332-7C5 (5E12, 10A8)"}, "B9": {"name": "F332-7C9 (antibody, mouse IgG2a, V domains shown)", "VH": "QVQLQQSGPELVKPGASVRISCKASGYTFTSHYLHWVKQRPGQGFEWIGWIYPGDGNTRYNEKFKDRATLTADKSSSTAYLHLSSLTSEDSAVYFCARDAGYYFDYWGQGTTLAVSS", "VL": "B1 VL with P50L, L52V, I80T", "notes": "also called F332-7C9-2; F332-7C9 (5C7, 7D10)"}}, "note": "Changes are numbered by the printed parent chain.", "data": [{"biological_target": "T1, Cynomolgus CD3 (Cynomolgus, UniProt Q95LI5 22-198; Q95LI7 23-181; Q95LI8 22-171)", "T1 construct": "whole, on cells; also called CD3 on Cynomolgus PBMCs; CD3 on HSC-F Cynomolgus T cell line", "T1 sequence (Q95LI5 22-198, chain 1 of 3)": "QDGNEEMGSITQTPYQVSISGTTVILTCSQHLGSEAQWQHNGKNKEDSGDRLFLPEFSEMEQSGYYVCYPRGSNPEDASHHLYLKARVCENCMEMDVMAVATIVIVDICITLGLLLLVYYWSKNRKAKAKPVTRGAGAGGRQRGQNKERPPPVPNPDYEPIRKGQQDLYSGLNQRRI", "T1 sequence (Q95LI7 23-181, chain 2 of 3)": "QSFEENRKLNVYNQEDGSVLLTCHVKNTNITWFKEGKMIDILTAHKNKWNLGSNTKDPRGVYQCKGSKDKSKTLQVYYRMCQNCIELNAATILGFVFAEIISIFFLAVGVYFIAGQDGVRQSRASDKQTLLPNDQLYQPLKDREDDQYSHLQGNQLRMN", "T1 sequence (Q95LI8 22-171, chain 3 of 3)": "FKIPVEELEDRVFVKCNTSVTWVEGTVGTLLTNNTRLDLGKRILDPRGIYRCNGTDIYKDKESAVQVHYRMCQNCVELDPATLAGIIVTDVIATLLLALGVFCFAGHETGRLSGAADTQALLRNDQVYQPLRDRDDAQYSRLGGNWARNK", "assay": "apparent KD (KDapp), flow cytometry titration on fresh cynomolgus PBMCs; second value in brackets, not explained", "units": {"Kd": "pM"}, "values": [{"binder": "B1", "Kd": 260}]}, {"biological_target": "T1, Cynomolgus CD3", "assay": "apparent KD (KDapp), flow cytometry titration on fresh cynomolgus PBMCs", "procedure": "(§1) To characterize potential cross-reactivity of the anti-human CD3 mAbs to NHP T cells, dose response flow cytometry titration studies were performed on both freshly obtained Cynomolgus PBMCs (Comparative Medicine and Animal Resources Centre—McGill University) or the Cynomolgus derived T cell line, HSC-F (Non-Human Primate Reagent Resource—NIH). Binding studies on fresh Cynomolgus PBMCs was performed on a subset of anti-CD3 mAbs (FIG. 4) whereas the Herpesvirus saimiri immortalized Cynomolgus T cell line HSC-F was employed for further evaluations (FIGS. 5A to 5C). KDapp values were calculated using a non-linear regression model of one-site binding with Hill slope (GraphPad Prism) and tabulated (Table 3b). Similar KDapp values for anti-CD3 mAb 1E2 obtained from binding to fresh Cynomolgus PBMCs (KDapp=0.28 nM) or the HSC-F T cell line (KDapp=0.39 nM) indicated the HSC-F cell line was a suitable surrogate for ex vivo NHP T cells.\nCynomolgus PBMCs were obtained from fresh ex vivo peripheral blood via density centrifugation and cultured overnight at 37° C./5% CO₂ in the presence of human recombinant IL2 (20 IU/mL; Novartis). Starting from 100 nM, graded doses of the anti-CD3 mAbs were incubated with 100K NHP PBMCs for 0.5 hours at 4° C. in flow staining buffer (SB; PBS/1% BSA/0.01% NaN3) in 96 w V-bottom plates. Following plate washing with SB (150 μL), cell pellets were resuspended in a 5 µg/mL solution of goat (Fab′)₂ anti-mouse IgG (H+L)− APC secondary antibody in SB, incubated at 4° C. (30 min.), washed 1× with SB, and resuspended for flow analysis. The commercial NHP cross-reactive SP34.2 anti-CD3 mAb (BD Biosciences), anti-human OKT-3 IgG2a (Biolegend—data not shown) and non-specific mIgG were employed as controls. 20K live events were acquired on a BD LSRFortessa flow analyzer and mean fluorescence intensities (MFI) calculated after subtraction of secondary antibody alone values. Using GraphPad Prism software, the data were analyzed using a one site specific binding with Hill slope non-linear regression model to calculate KDapp and BMax values (See Table 2).", "units": {"Kd": "pM"}, "values": [{"binder": "B2", "Kd": 110}, {"binder": "B1", "Kd": 250}, {"binder": "B3", "Kd": 280}, {"binder": "B4", "Kd": 210}, {"binder": "B5", "Kd": 150}]}, {"biological_target": "T1, Cynomolgus CD3", "assay": "apparent KD (KDapp), flow cytometry titration on cynomolgus HSC-F T cell line", "procedure": "as §1\nHSC-F T cells obtained from the Non-Human Primate Reagent Resource (NIH) were maintained in culture in RPMI media containing 20% FBS and 40 IU/mL recombinant human IL2. 100K HSC-F cells in logarithmic cell growth were treated with graded doses of the anti-CD3 mAbs starting at 100 nM in staining buffer (SB; PBS/1% BSA/0.01% NaN3) for 2 hours at 4° C. in 96 w V-bottom plates. Following plate washing with SB, the cell pellets were resuspended with 25 μL of goat (Fab′)₂ anti-mouse IgG (H+L)− APC secondary antibody (final 5 μg/mL), incubated for 30 minutes at 4° C., followed by flow cytometry analysis. The commercial NHP cross-reactive SP34.2 anti-CD3 mAb (BD Biosciences), recombinant anti-human OKT-3 IgG2b (in house produced) and non-specific mIgG were employed as controls. 20K live events were acquired on a BD LSRFortessa flow analyzer and mean fluorescence intensities (MFI) calculated after subtraction of secondary antibody alone values. Using GraphPad Prism software, the data were analyzed using a one site specific binding with Hill slope non-linear regression model to calculate KDapp and BMax values (See Table 2).", "units": {"Kd": "pM"}, "values": [{"binder": "B3", "Kd": 390}, {"binder": "B6", "Kd": 270}, {"binder": "B7", "Kd": 400}, {"binder": "B8", "Kd": 370}, {"binder": "B9", "Kd": 360}]}]}
